The target of experiment [1] is T1, C-type lectin-like receptor 2 (CLEC-2) (Homo sapiens, UniProt Q9P126).
T1 construct: gene CLEC1B; extracellular region of CLEC-2 (351–890, NM_016509), human IgG1 Fc-fusion (Fc-CLEC-2); with podoplanin
Put plainly: pull-down of podoplanin (pod-HeLa lysate) with purified Fc-CLEC-2 pre-incubated with compound; slot blot and western blot. In kind it is biochemical. A general note: A western blot detects proteins with antibodies after separation by electrophoresis.

Experiment [2] has as its target Fc moiety alone (human IgG1 Fc) (human). The experiment is described as follows: SDS-PAGE under reducing and non-reducing conditions; purified protein, with or without 2-mercaptoethanol, Coomassie blue staining.
The next experiment concerns the target CLEC-2 (Homo sapiens) (UniProt Q9P126). Conditions: cited from earlier work.
Experiment [3] has as its target immunoglobulin Fc domain-CLEC-2 fusion protein (Fc-CLEC-2) (human) (UniProt Q9P126). Put plainly: pull-down; standard combination (25 ug/mL Fc-CLEC-2, 1.5 mg/mL pod-HeLa lysate); hematoporphyrin or 2CP pre-incubated with Fc-CLEC-2 for 30 min, 2% DMSO control, in the dark; 10 uL slot-blotted; podoplanin intensity normalised to CLEC-2 intensity.
For experiment [4] the target is unchanged. Put plainly: pull-down; Fc-CLEC-2 or Fc (25 ug/mL) mixed in solution with pod-HeLa lysate (1.5 mg/mL; concentrations varied in some panels) on ice for 2 h, captured on protein A beads, washed 4x with TBST in a centrifugal filter unit, acid elution, SDS-PAGE and western blot with anti-podoplanin.

immunoglobulin Fc domain-CLEC-2 fusion protein (Fc-CLEC-2) (human), sequence (Q9P126 whole entry, the tested form may be a part): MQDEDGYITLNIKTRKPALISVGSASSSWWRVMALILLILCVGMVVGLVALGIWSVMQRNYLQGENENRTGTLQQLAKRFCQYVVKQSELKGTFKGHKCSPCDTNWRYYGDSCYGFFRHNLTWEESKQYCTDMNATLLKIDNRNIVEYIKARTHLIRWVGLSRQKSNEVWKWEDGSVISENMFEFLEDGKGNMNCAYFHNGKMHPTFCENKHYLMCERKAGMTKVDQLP
T1 sequence (Q9P126 50-229, one chain of several): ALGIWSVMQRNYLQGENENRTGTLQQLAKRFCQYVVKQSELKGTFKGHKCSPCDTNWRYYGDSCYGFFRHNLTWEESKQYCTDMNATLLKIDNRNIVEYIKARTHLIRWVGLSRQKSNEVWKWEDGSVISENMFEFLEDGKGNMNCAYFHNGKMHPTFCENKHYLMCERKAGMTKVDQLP
CLEC-2 (Homo sapiens), sequence (Q9P126 whole entry, the tested form may be a part): as the sequence (Q9P126 whole entry, the tested form may be a part) above

One may read the inhibition as the drop in the measured response relative to a control, in per cent. As to `CC1=C(CCC(=O)O)c2cc3[nH]c(cc4nc(cc5[nH]c(cc1n2)c(C)c5C(C)O)C(C)=C4C(C)O)c(C)c3CCC(=O)O` (centres unmarked) [HPy, hematoporphyrin], the inhibition at 20 µM in experiment [1] is ~70%.

The term stoichiometry N denotes the number of molecules, sites or subunits per partner or assembly. In experiment [2], “Fc moiety alone (human IgG1 Fc) (domain or fragment)” registered a stoichiometry N of 2.

For orientation: Kd means a measure of binding affinity in units of concentration. In the case of podoplanin (from UniProt Q86YL7), the Kd in the experiment with CLEC-2 (Homo sapiens) is 25 µM.

B1: podoplanin (full-length, from podoplanin-overexpressing HeLa cells) (natural protein)
chain: ASTGQPEDDTETTGLEGGVAMPGAEDDVVTPGTSEDRYKSGLTTLVATSVNSVTGIRIEDLPTSESTVHAQEQSPSATASNVATSHSTEKVDGDTQTTVEKDGLSTVTLVGIIVGVLLAIGFIGAIIVVVMRKMSGRYSP
With B1, the percent inhibition of the pull-down by 20 uM hematoporphyrin in experiment [3] worked out at 70%. Also, the percent of podoplanin recovered in the pull-down in experiment [4] is < 20%.

(Values after publication PMC6760769, “A pull-down and slot blot-based screening system for inhibitor compounds of the podoplanin-CLEC-2 interaction” (PLoS ONE, 2019).)
